Data published in the supplement of paper PMC9170038.

System: MS2 coat protein
Assay: apparent KD of MS2 coat protein; designed switch direction (-1 OFF switch, 1 ON switch): -1; higher = weaker reporter binding
Method in brief: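 The apparent KD reported per design is the median over clusters of curve fits to normalised cluster fluorescence. The RNA switches were transcribed on Illumina chips by stalled E. coli RNA polymerase. SNAP-549-labelled MS2 coat protein was titrated from 0.7 or 1.5 nM, doubling up to 3 µM, in Tris-HCl pH 7.5 buffer containing KCl, MgCl2, BSA, DTT, tRNA and Tween-20, with no input, 200 uM small-molecule ligand, or an oligonucleotide input.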

[1] = Eterna round: R95, input ligand: FMN 200 uM
[2] = Eterna round: R95, input ligand: microRNA oligo, concentration not stated
[3] = Eterna round: R95, input ligand: none
[4] = input ligand: microRNA oligo, concentration not stated

Row | Sequence | apparent KD of MS2 coat protein [1] | apparent KD of MS2 coat protein [2] | apparent KD of MS2 coat protein [3] | apparent KD of MS2 coat protein [4] | apparent KD of MS2 coat protein (input ligand: FMN 200 uM) | apparent KD of MS2 coat protein (input ligand: none)
1 | UAGAAACAUGAGGAUCACCCAUGUGAGGAUAUGAAAAAGAAAAGAAAAGAAAGAAGAAUCAGAAGGCACAAAGC [salish99-ex1_r3_092] (puzzle: Exclusion 1) | 28.6 nM | 17.7 nM | 36.6 nM | – | – | –
2 | UAGUUGCUCAGGGAGUGUGACAUGAGGAUCACCCAUGUGGUGGUAGGGAACAAGCUUUUUGCACGUACUUAUGAGUU [JR_SV3TOV1_Sub008] (puzzle: Sensor v3, turn-off variant 1) | 150 nM | 42.5 nM | 184 nM | – | – | –
3 | UUAGAAAUGUUAGGAUAUUAAUAUUUUUUUAGUAUGAUCUACAUGAGGAUCACCCAUGUUAAAAUUAAGAAGGAACAUUUUAUU [JR_ExcNG2_Sub098] (Eterna round: R96, puzzle: Exclusion NG 2) | – | – | – | 59.7 nM | – | –
4 | GUGUGCUGAGGAUAUACAGAGGAAGAUAAUACAAUAUAAGUACAUGAGGAUCACCCAUGUAGAAGGCAGAGUGU [Excluse me!! 11 - Jieux - Exclusion 2] (puzzle: Exclusion 2) | – | 23.4 nM | – | – | – | –
5 | GGUUUGUAAGGAUAUCCGAGAGGUAGGUGAGGGUUAGGGAAGGAGAAGGUACAUGAGGAUCACCCAUGUAAGGG [AK-MS2ROC-r4-exclusion4-10] (Eterna round: R97, puzzle: Exclusion 4) | – | – | – | – | 127 nM | 102 nM
6 | UCUAGACAUGAGGAUCACCCAUGUGAGGAUAUGAUGCGAUCGUCGAAAGACGAUAGCAUCAGAAGGCACAAAUG [Fiskers Ex 1 - 12] (Eterna round: R96, puzzle: Exclusion 1) | – | – | – | 53.6 nM | 200 nM | 72.3 nM
7 | CUCUCGGUAGGAUAUCCUCCGCCGAACAUGAGGAUCACCCAUGUCACUGCCACUACGCUAGGAGAAGGGCCAGACG [Eternabot (L2) Solution 55] (Eterna round: R97, puzzle: Exclusion 5) | – | – | – | – | 81.6 nM | 85.8 nM
8 | AUAAUGUCAGGAUAUCAGUCGACUAGCUUCGGCUAGUCGACUGAGAAGGGACAUGAGGAUCACCCAUGUAGAUC [E4/18-A1] (Eterna round: R97, puzzle: Exclusion 4) | – | – | – | – | 267 nM | 1120 nM
9 | CAGAGCAGAGGAUAUACAUGAGGAUCACCCAUGUGAUCAUGCUACGGGACGUUACAUUGUAGAAGGCUGCUUUC [Eternabot (L2) Solution 58] (Eterna round: R97, puzzle: Exclusion 3) | – | – | – | – | 283 nM | 31.1 nM
10 | AAUUAUAGAGGAUAUACAGAUUAAUACAUGAGGAUCACCCAUGUUCUUCAAUGUAUAUAUGUAGAAGGCUAAGGAA [JR_Ex5_Sub091] (Eterna round: R97, puzzle: Exclusion 5) | – | – | – | – | 181 nM | 238 nM
11 | AAUUUACAUGAGGAUCACCCAUGUGAGGAUAUAUAUAUAUAUUUGUUAUUGUGUGUGUGUAGAAGGCGCGUGAU [JR_Exc1_Sub034] (Eterna round: R97, puzzle: Exclusion 1) | – | – | – | – | 33.3 nM | 42.2 nM
12 | UUUUUAUAUGAAGGAUAUACUUAACAUGAGGAUCACCCAUGUGGUGUUGUGAGUGAGUGAGUUUAGUAGAAGGUCAAUGAUUGU [JMF's solution 60] (Eterna round: R96, puzzle: Exclusion NG 2) | – | – | – | 216 nM | 918 nM | 369 nM
13 | AUUGAUGUUGAGGAUAUGCUUUUAUUUAUAAUAGCAGAAGGCGAUACAUGAGGAUCACCCAUGUUCAUGGUUUU [JR_E6_Sub096] (puzzle: Exclusion 6) | – | 24.5 nM | – | – | – | –
14 | GUCCUGGAAUAUCAGAAGCACAUGAGGAUCACCCAUGUCAUGGGUAGAUCAAUAAAUAAAGAUACUGCUCGUCUUAU [Cac sensor turnoff var1 sub4] (Eterna round: R97, puzzle: Sensor, turn-off variant 1) | – | – | – | – | 837 nM | 228 nM
15 | GCAUGUCUUAAGGAUAUGCUUAGGCGUGAGCCGGCAGAAGGUAAGACAUGAGGAUCACCCAUGUUUUCCUAAAA [jl-ex6-4.31 ViennaUCT mod] (Eterna round: R97, puzzle: Exclusion 6) | – | – | – | – | 171 nM | 24.4 nM
16 | UUUUUGUCAGGAUAUGACUAGAUGCACGUUAGUGUGUUUACUUAGAAGGGACAUGAGGAUCACCCAUGUAUUCC [Bring Us a Shrubbery-14] (puzzle: Exclusion 4) | – | 26.4 nM | – | – | – | –
17 | UUCAGUCAUCCUUAUUCUUACAUGAGGAUCACCCAUGUUUGUUUAAUUAAGUUUUGUAAGUUUGUUGUUCGUUUUAU [JR_STOV1_v2_Sub073] (Eterna round: R97, puzzle: Sensor, turn-off variant 1) | – | – | – | – | 47.9 nM | 50.3 nM
18 | GGUCGGCGAGGAUAUACAUGAGGAUCACCCAUGUGAGAUAGUGCACGCGUACGUGUACGUAGAAGGCGCUGACG [JL-ex3-3.25 salish99 mod] (puzzle: Exclusion 3) | 26.1 nM | 12.4 nM | 8.3 nM | – | – | –
19 | UUAUAUAAUGUGAGGAUAUGCUGGUCCUUAGAUCAGCAGAAGGCACAUGAGGAUCACCCAUGUAGUAAAUUUUA [Mat - Exclusion 4 - JL Mod - D11] (puzzle: Brourd's mod of Exclusion 4) | 25 nM | 15.3 nM | 16.8 nM | – | – | –
20 | CUUCCACGGAUUGUAUUAAACAUGAGGAUCACCCAUGUCCGGGAUUUAAAACAAGCCCUUUGCUCAGUCCUUAUUGC [Eternabot (L1) Solution 10] (Eterna round: R97, puzzle: Sensor, turn-off variant 1) | – | – | – | – | 22.2 nM | 25.9 nM
21 | ACAAGCUUUGAUAUCCUUAACAUGAGGAUCACCCAUGUUCGUCUUAUGAUGGUCUGAUCCCUGAGGAUCGGACCGUU [JL-sv1-2.08 Brourd Mod] (puzzle: Sensor v3, turn-off variant 1) | 33.7 nM | 96.2 nM | 35.5 nM | – | – | –
22 | GAUAGAGAGCAGGAUAUCUUGGGUUAGUAUCGUAGAGAAGGGCUCACAUGAGGAUCACCCAUGUGGUCCAAGAU [JL Dibiri mod 02] (puzzle: Exclusion 6) | 36.5 nM | 15.1 nM | 13.3 nM | – | – | –
23 | GGUGGCUGCGUGAGACAUGAGGAUCACCCAUGUUACCGAACAAAGGAUAUAGAAGCACACAGCUACUAGAAGGUUGAAAAGAAA [Requen] (Eterna round: R96, puzzle: Exclusion NG 3) | – | – | – | 16.2 nM | 12.2 nM | 19.6 nM
24 | AACGAUACGCUCAUAAGAACAUGAGGAUCACCCAUGUGUGGUGAGGAUAUCCACCCAGAGGGAAAGGAGAAGGUACCAGUGGGC [Ries] (Eterna round: R96, puzzle: Exclusion NG 3) | – | – | – | 61.8 nM | 31.3 nM | 61 nM
25 | GGAUCUUGGGUCAGGAUAUGCUGAUAGUUAUGUCAGCAGAAGGGACAUGAGGAUCACCCAUGUGCUCGGUUUUG [Magic-18] (puzzle: Brourd's mod of Exclusion 4) | – | 11.3 nM | – | – | – | –
26 | UUGUUGUAUGUAGGAUAUGCAUAUUAUUAUUAUGCAGAAGGACAUGAGGAUCACCCAUGUAUAUUAUUAUUAUAUAUUAUAUAU [Title] (Eterna round: R96, puzzle: Exclusion NG 1) | – | – | – | 23.5 nM | – | –
